Measurements published in patent US20240279357A1 (THERINI BIO, published 2024).
Where a chain is given by its changes, count along the chain named.

T1: P2 peptide comprising SEQ ID NO: 31 (human fibrin γ377-395) (human)
T1 construct: Bought (CPC Scientific 920712); also called human P2 peptide
T1 peptide: YSMKKTTMKIIPFNRLTIG

B1: humanized VH5/Vκ2 antibody (antibody, IgG1, V domains shown)
VH: QVQLVQSGAEVKKPGSSVKVSCKASGYTFTSYWIHWVRQAPGQGLEWIGLIDPSDSYTNYNQKFRGRVTITRDTSTSTAYMELSSLRSEDTAVYYCASSDPTGCWGQGTTVTVSS
VL: DIVMTQAAFSNPVTPGTPASISCRSSKSLLHSSGITYLSWYLQKPGQSPQLLIYQMSNLASGVPDRFSSSGSGTDFTLKISRVEAEDVGVYYCAQNLELPLTFGQGTKLEIK
notes: IgG1; also called VH5/VK2; VH5Vk2
B2: humanized VH4/Vκ2 antibody (antibody, IgG1, V domains shown)
VH: B1 VH with R72V
VL: B1 VL
notes: IgG1; also called VH4/VK2; VH4Vk2
B3: humanized VH4/Vκ1 antibody (antibody, IgG1, V domains shown)
VH: B1 VH with R72V
VL: B1 VL with V13I, K79R
notes: Expressed as IgG1; also called VH4/VK1; VH4Vk1
B4: humanized VH6/Vκ2 antibody (antibody, IgG1, V domains shown)
VH: B1 VH with R65Q
VL: B1 VL
notes: Expressed as IgG1; also called VH6/VK2; VH6Vk2

Target: T1, P2 peptide comprising SEQ ID NO: 31 …
Experiment: SPR (Biacore) single cycle, steady state fit; IgG from HEK supernatant captured, P2 peptide analyte
Procedure: FIG. 18 illustrates the procedure used for the single cycle kinetics analysis. The Biacore T200 […] instrument was used for single cycle kinetics analysis with the control software v2.0.1, and evaluation software V3.0. The anti-human capture chip was used with a running buffer consisting of HBS-P+ buffer (pH 7.4) containing 0.1% BSA at 25° C. a flow rate of 30 μl/min. Neat HEK supernatants were used as ligand and loaded to ˜1674 RU at 10 μl/min. P2 peptide comprising SEQ ID NO: 31 (CPC Scientific 920712, Lot #CS-02-00350) was the analyte for the analysis. […] Regeneration was performed with MgCl₂. Antibodies were diluted in running buffer to a final concentration of 20 μg/ml, based on concentrations assessed by Octet titre. At the start of each cycle, antibodies were loaded onto Fc2, Fc3 and Fc4 of the anti-human capture chip (GE Healthcare, Little Chalfont, UK). IgGs were captured at a flow rate of 10 μl/min to give an immobilization level (RL) of ˜ 1674 RU, the theoretical value to obtain an RMax of ˜50 RU. The surface was then allowed to stabilize. Single cycle kinetic data was obtained with P2 peptide as the analyte at a flow rate of 30 μl/min to minimize any potential mass transport limitations. […] The signal from the reference channel Fc1 (no antibody) was subtracted from that of Fc2, Fc3 and Fc4 to correct for differences in non-specific binding to a reference surface. […] The association phase for the five injections of increasing concentrations of P2 peptide was monitored for 20 seconds each time and a single dissociation phase was measured for 25 seconds following the last injection analyte. Regeneration of the anti-human capture surface was conducted using one injection of 3.8 M magnesium chloride.

Row | Binder | Kd | Relative KD
1 | B1 | 130 µM | 1.47 fold against VH0/VK0
2 | B2 | 84.5 µM | 0.8 fold against VH0/VK0
3 | B3 | 105 µM | 1.18 fold against VH0/VK0
4 | B4 | 124 µM | 1.4 fold against VH0/VK0
